*1 amine or outer side, *2 acyl side, *3 side chain or, on linkers, in order; H or OH if unused. Side-chain parts run from the residue outwards. [ ]: non-standard residue; d: D form. The star is where a group is joined. TTDS = 1,13-diamino-4,7,10-trioxatridecan-succinic acid spacer arm, O=C(CCC(=O)[*:2])NCCCOCCOCCOCCCN[*:1]; PEG5000 = COCH2CH2NH(CH2CH2O)nMe, about 5000 g/mol; γGlu = O=C(O)[C@H](CCC(=O)[*:2])N[*:1]; Arg(Me) = CNC(=N)NCCC[C@H](N)C(=O)O; Palmitoyl = CCCCCCCCCCCCCCCC(=O)*
B1: peptide compound C3, Ac-Tyr-Asn-Trp-Asn-Ser-Phe-GlyΨ[Tz]Leu-Arg(Me)-Tyr-NH2 (peptide)
peptide: Ac-YNWNSFGL[Arg(Me)]Y-NH2
modifications: also: Gly7-Leu8 peptide bond replaced by 1,4-disubstituted 1,2,3-triazole
B2: peptide compound C5, Ac-Tyr-Asn-Trp-Asn-Ser-PheΨ[Tz]GlyΨ[Tz]Leu-Arg-Tyr-NH2 (peptide)
peptide: Ac-YNWNSFGLRY-NH2
modifications: also: Phe6-Gly7 and Gly7-Leu8 peptide bonds replaced by 1,4-disubstituted 1,2,3-triazoles
B3: peptide compound C1, H-Tyr-Asn-Trp-Asn-Ser-Phe-GlyΨ[Tz]Leu-Arg-Tyr-NH2 (peptide)
peptide: H-YNWNSFGLRY-NH2
modifications: also: Gly7-Leu8 peptide bond replaced by 1,4-disubstituted 1,2,3-triazole
B4: comparative peptide compound Comp.1 (mKP10), H-Tyr-Asn-Trp-Asn-Ser-Phe-Gly-Leu-Arg-Tyr-NH2 (peptide)
peptide: H-YNWNSFGLRY-NH2
B5: peptide compound C4, Ac-Tyr-Asn-Lys(Ac)-Asn-Ser-Phe-GlyΨ[Tz]Leu-Arg(Me)-Tyr-NH2 (peptide)
peptide: Ac-YNK(Ac)NSFGL[Arg(Me)]Y-NH2
modifications: also: Gly7-Leu8 peptide bond replaced by 1,4-disubstituted 1,2,3-triazole
B6: peptide compound Comp.3, Ac-Tyr-Asn-Trp-Asn-Ser-Phe-Gly-Leu-Arg-Tyr-NH2 (peptide)
peptide: Ac-YNWNSFGLRY-NH2
B7: peptide compound C2, Ac-Tyr-Asn-Trp-Asn-Ser-Phe-GlyΨ[Tz]Leu-Arg-Tyr-NH2 (peptide)
peptide: Ac-YNWNSFGLRY-NH2
modifications: also: Gly7-Leu8 peptide bond replaced by 1,4-disubstituted 1,2,3-triazole
B8: peptide compound C11, Ac-Tyr-Asn-Lys(γ-(N-hexadecanoyl-Glu-OH))-Asn-Ser-Phe-GlyΨ[Tz]Leu-Arg-Tyr-NH2 (peptide)
peptide: Ac-YNK([γGlu-Palmitoyl])NSFGLRY-NH2
modifications: also: Gly7-Leu8 peptide bond replaced by 1,4-disubstituted 1,2,3-triazole
B9: peptide compound C16, Ac-Tyr-Lys(PEG5000)-Trp-Asn-Ser-Phe-GlyΨ[Tz]Leu-Arg-Tyr-NH2 (peptide)
peptide: Ac-YK(PEG5000)WNSFGLRY-NH2
modifications: also: Gly7-Leu8 peptide bond replaced by 1,4-disubstituted 1,2,3-triazole
B10: peptide compound C9, γ-(N-hexadecanoyl-Glu-OH)-Tyr-Asn-Trp-Asn-Ser-Phe-GlyΨ[Tz]Leu-Arg-Tyr-NH2 (peptide)
peptide: {Palmitoyl-γGlu}-YNWNSFGLRY-NH2
modifications: also: Gly7-Leu8 peptide bond replaced by 1,4-disubstituted 1,2,3-triazole
B11: peptide compound C15, Ac-Tyr-Lys[2-(succinamido)-6-(4-(4-iodophenyl)butanamido)hexanoate]-Trp-Asn-Ser-Phe-GlyΨ[Tz]Leu-Arg-Tyr-NH2 (peptide)
peptide: Ac-YK(2‑(succinamido)‑6‑(4-(4-iodophenyl)butanamido)hexanoate)WNSFGLRY-NH2
modifications: also: Gly7-Leu8 peptide bond replaced by 1,4-disubstituted 1,2,3-triazole
B12: peptide compound C12, γ-(N-hexadecanoyl-Glu-OH)Tyr-Asn-Trp-Asn-Ser-Phe-GlyΨ[Tz]Leu-Arg(Me)-Tyr-NH2 (peptide)
peptide: {Palmitoyl-γGlu}-YNWNSFGL[Arg(Me)]Y-NH2
modifications: also: Gly7-Leu8 peptide bond replaced by 1,4-disubstituted 1,2,3-triazole
B13: peptide compound C14, Ac-Tyr-Lys(TTDS-(γ-(N-hexadecanoyl-Glu-OH)))-Trp-Asn-Ser-Phe-GlyΨ[Tz]Leu-Arg-Tyr-NH2 (peptide)
peptide: Ac-YK([TTDS-γGlu-Palmitoyl])WNSFGLRY-NH2
modifications: also: Gly7-Leu8 peptide bond replaced by 1,4-disubstituted 1,2,3-triazole
B14: peptide compound C8, Ac-Tyr-Lys(γ-(N-hexadecanoyl-Glu-OH))-Trp-Asn-Ser-Phe-GlyΨ[Tz]Leu-Arg-Tyr-NH2 (peptide)
peptide: Ac-YK([γGlu-Palmitoyl])WNSFGLRY-NH2
modifications: also: Gly7-Leu8 peptide bond replaced by 1,4-disubstituted 1,2,3-triazole

Biological target: T1, human KISS1R receptor (human, UniProt Q969F8 1-398)
Assay: cell-based or functional assay

T1 sequence (Q969F8 whole entry): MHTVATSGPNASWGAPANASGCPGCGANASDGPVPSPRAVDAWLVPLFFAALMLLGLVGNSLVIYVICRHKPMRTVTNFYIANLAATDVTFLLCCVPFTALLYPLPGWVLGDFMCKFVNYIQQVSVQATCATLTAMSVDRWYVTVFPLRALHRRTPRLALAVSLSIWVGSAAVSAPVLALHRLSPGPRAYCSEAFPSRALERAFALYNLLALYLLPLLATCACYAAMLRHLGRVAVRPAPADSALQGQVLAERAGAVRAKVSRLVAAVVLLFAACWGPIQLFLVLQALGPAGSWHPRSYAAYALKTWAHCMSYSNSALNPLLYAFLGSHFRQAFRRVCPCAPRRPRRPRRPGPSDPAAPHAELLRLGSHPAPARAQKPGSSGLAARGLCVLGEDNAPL

Molecule	EC50 (nM), intracellular calcium mobilization of cells expressing human KISS1R [nM]
B1	0.014
B2	44
B3	0.5
B4	2.9
B5	0.011
B6	0.1
B7	0.029

Biological target: T1, human KISS1R receptor
Assay: cell-based or functional assay
Remark: another data set of the same source

Molecule	EC50 (nM), intracellular calcium mobilization of cells expressing human KISS1R [nM]
peptide compound C6, Ac-DTyr-DTrp-Asn-Thr-Phe-GlyΨ[Tz]Leu-Arg(Me)-Trp-NH2	0.01
peptide compound C7, Ac-DTyr-Hyp-Asn-Thr-Phe-GlyΨ[Tz]Leu-Arg(Me)-Trp-NH2	0.014

Biological target: T1, human KISS1R receptor
Assay: cell-based or functional assay
Remark: another data set of the same source

Molecule	EC50 (nM), intracellular calcium mobilization of cells expressing human KISS1R [nM]
B8	90
B9	4.17
B10	< 0.001
B11	0.001
B12	< 0.001
B13	0.079
B14	1.38
